This test addresses HIV-1 M group N-terminal capsid domain (HIV-1 M group) (UniProt P12493). The experiment in a line: ITC.

pKd: −log10 of the molar value.

As to “Cyclophilin A (unacetylated, recombinant) (from UniProt P62937 1-165) (enzyme)”, the pKd is 5.12 and the dH is -7.4 kcal/mol.

“Lys125-acetylated Cyclophilin A (recombinant) (from UniProt P62937 1-165) (enzyme)” showed a pKd of 5.21 and a dH of -4.6 kcal/mol.

The record behind these values is PMC3867001.
